T1: 人TIGIT (TIGIT-Jurkat细胞表面) (human, UniProt Q495A1 22-244)
T1 construct: whole, on cells
T1 sequence (looked up): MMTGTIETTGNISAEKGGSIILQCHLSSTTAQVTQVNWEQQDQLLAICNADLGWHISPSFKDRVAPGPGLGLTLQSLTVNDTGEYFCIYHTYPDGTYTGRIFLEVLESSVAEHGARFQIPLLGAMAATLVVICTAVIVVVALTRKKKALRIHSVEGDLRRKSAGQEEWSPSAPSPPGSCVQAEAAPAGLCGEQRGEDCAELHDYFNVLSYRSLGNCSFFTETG

B1: 抗体h10D8OF (antibody, human IgG1, kappa, V domains shown)
VH: QVQLVESGGGVVQPGRSLRLDCKASGFTFSSYGMSWVRQAPGKGLELVATINSNGGSTYYPDSVKGRFTISRDNSKNTLFLQMNSLRAEDTAVYYCARLGTGTLGFAYWGQGTLVTVSS
VL: EIVMTQSPATLSLSPGERATLSCKASQDVKTAVSWYQQKPGQAPRLLIYWASTRATGIPARFSGSGSGTDYTLTISSLEPEDFAVYYCQQHYSTPWTFGQGTKVEIKR
notes: also called 抗TIGIT抗体
B2: 参照抗体Tiragolumab (antibody, V domains shown)
VH: EVQLQQSGPGLVKPSQTLSLTCAISGDSVSSNSAAWNWIRQSPSRGLEWLGKTYYRFKWYSDYAVSVKGRITINPDTSKNQFSLQLNSVTPEDTAVFYCTRESTTYDLLAGPFDYWGQGTLVTVSS
VL: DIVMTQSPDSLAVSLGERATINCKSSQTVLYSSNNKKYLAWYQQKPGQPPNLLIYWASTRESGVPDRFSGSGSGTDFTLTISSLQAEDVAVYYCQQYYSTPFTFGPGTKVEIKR
B3: 抗体h10D8OFKF (antibody, human IgG1, kappa, V domains shown)
VH: B1 VH
VL: B1 VL
notes: also called 抗TIGIT抗体

target: T1, 人TIGIT (TIGIT-Jurkat细胞表面); assay: flow cytometry competition: blocking of PVR-Fc-bio (12.5 nM) binding to TIGIT-Jurkat cells

| IC50 | Binder |
| --- | --- |
| 0.441 nM | B1 |
| 2.82 nM | B2 |
| 0.742 nM | B3 |
